Among the data in article PMC8962522 (2022) are Kd values, retold here.

The assay addresses CD44v3 (Homo sapiens, UniProt P16070). Nature of the assay: MST.

Sequence of CD44v3 (P16070 21-649): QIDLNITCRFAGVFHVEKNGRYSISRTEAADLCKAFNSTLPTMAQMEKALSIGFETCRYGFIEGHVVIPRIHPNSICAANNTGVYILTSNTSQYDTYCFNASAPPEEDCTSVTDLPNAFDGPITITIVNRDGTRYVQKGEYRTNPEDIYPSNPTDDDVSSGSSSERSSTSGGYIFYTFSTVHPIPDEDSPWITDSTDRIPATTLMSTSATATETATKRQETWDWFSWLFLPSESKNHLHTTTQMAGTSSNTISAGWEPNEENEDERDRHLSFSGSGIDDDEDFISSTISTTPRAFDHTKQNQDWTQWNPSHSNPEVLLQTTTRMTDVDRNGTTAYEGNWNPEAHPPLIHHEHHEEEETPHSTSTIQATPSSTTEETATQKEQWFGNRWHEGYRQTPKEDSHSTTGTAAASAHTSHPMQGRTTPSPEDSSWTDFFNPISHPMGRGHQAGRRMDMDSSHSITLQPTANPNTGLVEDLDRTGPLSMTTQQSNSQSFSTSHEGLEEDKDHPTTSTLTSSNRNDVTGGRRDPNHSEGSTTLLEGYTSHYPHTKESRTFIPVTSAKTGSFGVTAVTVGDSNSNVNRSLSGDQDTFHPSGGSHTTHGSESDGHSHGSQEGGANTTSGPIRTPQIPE

B1: TrkA (protein)
chain: AAPCPDACCPHGSSGLRCTRDGALDSLHHLPGAENLTELYIENQQHLQHLELRDLRGLGELRNLTIVKSGLRFVAPDAFHFTPRLSRLNLSFNALESLSWKTVQGLSLQELVLSGNPLHCSCALRWLQRWEEEGLGGVPEQKLQCHGQGPLAHMPNASCGVPTLKVQVPNASVDVGDDVLLRCQVEGRGLEQAGWILTELEQSATVMKSGGLPSLGLTLANVTSDLNRKNVTCWAENDVGRAEVSVQVNVSFPASVQLHTAVEMHHWCIPFSVDGQPAPSLRWLFNGSVLNETSFIFTEFLEPAANETVRHGCLRLNQPTHVNNGNYTLLAANPFGQASASIMAAFMDNPFEFNPEDPIPVSFSPVDTNSTSGDPVEKKDETPFGVSVAVG
modifications: NGF
With B1, the affinity, expressed as Kd, was 9.47 nM.
